Positions count from the first letter of the chain named.
B1: PT66 monoclonal antibody (recombinant, mouse IgG2a/kappa) (antibody, V domains shown)
VH: QVQLQQPGAELVKPGASVKMSCKASGYTFTSYWITWVKQRPGQGLEWIGDIHPGRGSTKSNEKFKSKATLTVDTSSSTAYMQFSSLTSEDSAVYYCARRWGFDYWGQGTTLTVSS
VL: DIVITQDELSNPVTSGESVSISCRSSKSLLYKDGKTYLNWFLQRPGQSPQLLIYLMSTRASGVSDRFSGSGSGTDFTLEISRVKAEDVGVYYCQQLVDYPLTFGAGTKLELKR
B2: PT69 monoclonal antibody (recombinant, mouse IgG2a/kappa) (antibody, V domains shown)
VH: B1 VH with S31N, H52Y, R55S, S57R, S66N, V72A, F83L, A97T, F102L
VL: B1 VL with S26N
B3: hTau60 monoclonal antibody (recombinant, mouse IgG2a/kappa) (antibody, V domains shown)
VH: EVQLQQSGPELVKPGTSVKISCKVFGYTFTDYYMNWVKQSHGKSLEWIGDINPDNGETTYNQKFKGKATLTVDKSSSTAYMELRSLTSEDSAVYYCAKGATFVYWGQGTLVTVSA
VL: DVVMTQTPLSLPVSLGDQASISCISSQSLVHSTGTTFLHWFLQKPGQSPKLLIYKVSNRFSGVPDRFSGSGSGTDFTLKISRVEAEDLGFYFCSQSTYFPLTFGSGTKLEIKR

biological target: tau of P301S transgenic mice (aggregated tau in brainstem; tau seeds from spinal cord) (UniProt P10636); test: cell-based or functional assay
Sequence (P10636 other isoform, or with tags, fused parts or gaps P301S P301S): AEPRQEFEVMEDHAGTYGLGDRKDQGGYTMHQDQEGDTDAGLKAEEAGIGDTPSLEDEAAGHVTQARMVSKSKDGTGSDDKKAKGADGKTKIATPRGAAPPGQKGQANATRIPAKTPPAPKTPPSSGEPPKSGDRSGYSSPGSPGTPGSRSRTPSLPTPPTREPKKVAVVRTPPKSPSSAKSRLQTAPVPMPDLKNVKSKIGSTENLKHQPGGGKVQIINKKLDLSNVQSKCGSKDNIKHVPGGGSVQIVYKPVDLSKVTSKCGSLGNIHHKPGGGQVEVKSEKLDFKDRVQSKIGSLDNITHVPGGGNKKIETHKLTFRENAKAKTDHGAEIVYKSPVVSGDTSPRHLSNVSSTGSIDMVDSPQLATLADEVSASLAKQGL

Going from B1 to B2, the % inhibition of tau seeding in FRET biosensor cells after immunodepletion, antibody 3 nM falls from 46.5% to 45.8%.

B3 was tested, and the % inhibition of tau seeding in FRET biosensor cells after immunodepletion, antibody 3 nM was 22%.

Compared with B1, B2 is higher in % inhibition of tau seeding in FRET biosensor cells after immunodepletion, antibody 300 nM: 99.7% for the first, 99.8% for the second.

B3 gave a % inhibition of tau seeding in FRET biosensor cells after immunodepletion, antibody 300 nM of 99.7%.
